Target: the molecule itself
Assay: native MS; ESI-MS under non-denaturing conditions, positive ion mode; cluster-reconstituted [4Fe–4S] RirA, ~30 μM in cluster, 250 mM ammonium acetate pH 7.3; monomer to dimer

B1: Rhizobial iron regulator A (RirA) from Rhizobium leguminosarum (natural protein, UniProt Q9AE46 1-160, looked up)
chain: MRLTKQTNYAVRMLMYCAANDGHLSRIPEIAKAYGVSELFLFKILQPLNKAGLVETVRGRNGGVRLGKPAADISLFDVVRVTEDSFAMAECFEDDGEVECPLVDSCGLNSALRKALNAFFAVLSEYSIDDLVKARPQINFLLGITGEPAYRKPAIVAPAA
notes: RirA, Rhizobium leguminosarum strain 8401 (pRL1JI), rirA gene CAC35510, codon-optimised for E. coli; calculated mass of the monomer 17.4 kDa (apo predicted 17 442 Da, observed 17 441 Da); No tag is mentioned; It carries an iron–sulfur cluster as cofactor: [4Fe–4S] after reconstitution, and mainly [2Fe–2S] after 1 mM EDTA for 2.5 h; Less than 5% of the preparation was truncated, lacking 20 …
- stoichiometry N: 2

Reference: PMC5863699, “Sensing iron availability via the fragile [4Fe–4S] cluster of the bacterial transcriptional repressor RirA† †Electronic supplementary information (ESI) available. See DOI: 10.1039/c7sc02801f” (Chemical Science, 2017)
